This assay addresses MBP-LDLR tail wild-type (full-length LDLR tail fused to maltose-binding protein). In words: pull-down.

B1: recombinant GST-His-tagged AP-1B core complex (γ, β1, μ1B, σ1) (complex)
chain 1: not shown
chain 2: MTDSKYFTTTKKGEIFELKAELNSDKKEKKKEAVKKVIASMTVGKDVSALFPDVVNCMQTDNLELKKLVYLYLMNYAKSQPDMAIMAVNTFVKDCEDPNPLIRALAVRTMGCIRVDKITEYLCEPLRKCLKDEDPYVRKTAAVCVAKLHDINAQLVEDQGFLDTLKDLISDSNPMVVANAVAALSEIAESHPSSNLLDLNPQSINKLLTALNECTEWGQIFILDCLANYMPKDDREAQSICERVTPRLSHANSAVVLSAVKVLMKFMEMLSKDLDYYGTLLKKLAPPLVTLLSAEPELQYVALRNINLIVQKRPEILKHEMKVFFVKYNDPIYVKLEKLDIMIRLASQANIAQVLAELREYATEVDVDFVRKAVRAIGRCAIKVEQSAERCVSTLLDLIQTKVNYVVQEAIVVIKDIFRKYPNKYESVIATLCENLDSLDEPEARAAMIWIVGEYAERIDNADELLESFLEGFHDKSTQVQLQLLTAFVKLFLKKPTETQELVQQVLSLATQDSDNPDLRDRGYIYWRLLSTDPVAAKEVVLAEKPLISEETDLIEPTLLDELICYIGTLASVYHKPPSAFVEG
chain 3: MSASAVFILDVKGKPLISRNYKGDVPMTEIDHFMPLLMQREEEGVLAPLLSHGRVHFLWIKHSNLYLVATTLKNANASLVYSFLYKTVEVFCEYFKELEEESIRDNFVIVYDLLDELMDFGFPQTTDSKILQEYITQQGNKLETGKSRVPPTVTNAVSWRSEGIKYKKNEVFIDVIESVNLLVNANGSVLLSEIVGTIKLKVFLSGMPELRLGLNDRVLFELTGRSKNKSVELEDVKFHQCVRLSRFDNDRTISFIPPDGDFELMSYRLSTQVKPLIWIESVIEKFSHSRVEIMVKAKGQFKKQSVANGVEISVPVPSDADSPRFKTSVGSAKYVPEKNVVIWSIKSFPGGKEYLMRAHFGLPSVETEEVEGRPPIGVKFEIPYFTVSGIQVRYMKIIEKSGYQALPWVRYITQSGDYQLRTS
chain 4: MIHFILLFSRQGKLRLQKWYITLPDKERKKITREIVQIILSRGHRTSSFVDWKELKLVYKRYASLYFCCAIENQDNELLTLEIVHRYVELLDKYFGNVCELDIIFNFEKAYFILDEFIIGGEIQETSKKIAVKAIEDSDMLQEVSTVCQTMGER
For B1, the “fold binding relative to AP-1A” value was roughly 5 fold.

The values are drawn from publication PMC3992434 (Developmental cell, 2013).
